# Reference: the supplement of paper PMC10567573
# B1: C22orf15 (parent)
# chain: ITQSWQVSVRVQPRGRAHLLPNPY
# Variants of: B1
# Test: protein stability index of a GFP-peptide fusion (GPS, HEK-293T) (PSI 1-6); higher = more stable
# Conditions: c terminus: a fixed tail appended
# 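Note: lentivirally expressed fusions sorted by FACS into six bins by GFP to DsRed ratio, PSI derived from sequencing read proportions per bin multiplied by bin number.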
row,Variant,protein stability index
1,L19T,2.62
2,L19R,2.43
3,L19K,2.33
4,L19A,2.42
5,L19I,2.81
6,L19H,1.92
7,L19S,2.1
8,L19N,1.49
9,L19Q,1.93
10,L19G,2.23
11,L19P,1.78
12,L19E,3.62
13,L19D,1.82
14,L19M,3.54
15,L19V,1.6
16,L19C,2.07
17,R10E,1.32
18,R10C,1
19,R10W,2.02
20,R10L,2.47
21,R10F,2.62
22,R10S,1.98
23,R10K,2.41
24,R10T,1.98

row,Variant,protein stability index
1,R10G,2.89
2,R10D,2.05
3,R10Q,2.09
4,R10M,2.9
5,R10A,1.83
6,R10Y,2.12
7,R10P,1.83
8,R10N,2.63
9,R10H,1.5
10,R10I,3.79
11,L20I,2.29
12,L20H,1.51
13,L20A,1.91
14,L20C,1.97
15,L20P,1.17
16,L20K,1.01
17,L20N,2.16
18,R16L,1.69
19,R16S,2.21
20,R16N,1.4
21,R16C,4.64
22,R16E,1.24
23,R16I,2.26
24,R16D,2.88

row,Variant,protein stability index
1,R16V,1.24
2,R16T,2.14
3,R16P,2.07
4,R16Y,3.74
5,R16H,1.89
6,R16Q,1
7,R16W,2.89
8,R16F,3.25
9,R14P,1.68
10,R14L,2.15
11,R14K,2.25
12,R14I,1.54
13,R14Y,1.85
14,R14H,2
15,R14E,2.73
16,R14N,1.98
17,R14A,3.37
18,R14F,1.78
19,R14D,1.87
20,R14T,1.05
21,R14Q,2.15
22,A17R,1.66
23,A17Y,3.21
24,A17D,1.76

row,Variant,protein stability index
1,A17K,1.34
2,A17M,2.57
3,A17P,1.81
4,A17F,1.1
5,A17Q,1.68
6,A17G,3.81
7,A17L,2.42
8,A17W,2.46
9,A17S,2.46
10,A17N,1.7
11,A17C,3.18
12,A17I,2.96
13,A17H,3.03
14,A17T,2.28
15,A17V,2.58
16,V9T,1.55
17,V9S,1.91
18,V9N,2.45
19,V9Q,2.44
20,V9P,1.81
21,Q12C,1.77
22,Q12D,2.27
23,Q12F,3.49
24,Q12H,2.27

row,Variant,protein stability index
1,Q12Y,2.25
2,Q12P,1.72
3,Q12A,1.16
4,Q12W,2.49
5,Q12N,2.98
6,Q12K,1.79
7,Q12E,2.61
8,Q12G,3.64
9,Q12S,2.13
10,Q12M,3.2
11,Q12T,1
12,P13I,2.67
13,P13T,1.94
14,P13K,1.65
15,P13R,1.16
16,P13Q,2.21
17,P13D,1.86
18,P13V,3.02
19,P13M,1.91
20,P13S,2.67
21,P13N,1.74
22,P13H,2.27
23,P13L,2.69
24,P13Y,2.01

row,Variant,protein stability index
1,P13G,1.64
2,G15R,1.73
3,G15E,2.02
4,G15K,2.31
5,G15W,4.12
6,G15C,1.97
7,G15Q,1.48
8,G15D,1.94
9,G15V,2.31
10,G15P,3.81
11,G15T,1.51
12,G15Y,1.77
13,G15A,4.31
14,G15F,1.97
15,G15N,3.33
16,G15H,2.03
17,H18E,1.36
18,H18D,2.29
19,H18V,2.19
20,H18I,1.29
21,H18C,1.49
22,H18M,1.83
23,H18L,3.13
24,H18P,2.7

row,Variant,protein stability index
1,H18K,1.74
2,H18Y,1.95
3,H18N,2.99
4,H18A,2.9
5,H18Q,2.99
6,H18T,2.13
7,H18S,1.43
8,V11A,2.07
9,V11I,4.95
10,V11M,3.05
11,V11K,3.28
12,V11D,2.45
13,V11P,1.8
14,V11T,1.87
15,V11H,2.49
16,V11N,2.51
17,V11R,1.86
18,V11Y,1.68
19,V11Q,1.49
20,V11G,2.43
21,V11E,2.65
22,V11S,1.95
23,V11F,1.69
